Results as given in the Human Domainome abundance scans (Beltran et al. 2025).
± gives the uncertainty stated by the source.

B1: Intersectin-1, residues 909 to 971; numbered along this chain, Q15811 (parent)
chain: QGEKVEGLQAQALYPWRAKKDNHLNFNKNDVITVLEQQDMWWFGEVQGQKGWFPKSYVKLISG

Variants of: B1
Experiment: abundance fitness (aPCA) (normalised: wild type 0, dead -1); higher = more abundant; growth selection in yeast, the domain comes from the species named
Conditions: Homo sapiens

Variant	abundance fitness
QGEKVEGLQAQALYPWRAKKDNHLNFNKNPVITVLEQQDMWWFGEVQGQKGWFPKSYVKLISG [D30P]	-0.759 ± 0.069
QGEKVEGLQAQALYPWRAKKDNHLNFNKNFVITVLEQQDMWWFGEVQGQKGWFPKSYVKLISG [D30F]	-0.742 ± 0.054
QGEKVEGLQAQALYPWRAKKDNHLNFNKNDVITVLEQQDMWWFGEVQGQKGWFPKSYVALISG [K59A]	-0.165 ± 0.14
QGEKVEGVQAQALYPWRAKKDNHLNFNKNDVITVLEQQDMWWFGEVQGQKGWFPKSYVKLISG [L8V]	0.14 ± 0.082
QGEKVEGLQAQALYPWRAKKDNHLNFNKNDVITVLEQADMWWFGEVQGQKGWFPKSYVKLISG [Q38A]	-0.463 ± 0.2
QGEKVEGLQAQALYPWRAKKDNHLNFNKNDVITVLEQQDMWWFGEVQGQHGWFPKSYVKLISG [K50H]	-0.271 ± 0.23
QGEKVEGLQAQALYPWRAKKDNHLNFNKNDVITVLEQQDMWWFGEVQGQLGWFPKSYVKLISG [K50L]	-0.383 ± 0.14
QGEKVEGLQAQALYPWRAKKDNHCNFNKNDVITVLEQQDMWWFGEVQGQKGWFPKSYVKLISG [L24C]	-0.199 ± 0.14
QGEKVEGLQAQALYPWRAKKDNHLNFNKNDVITVKEQQDMWWFGEVQGQKGWFPKSYVKLISG [L35K]	0.168 ± 0.26
QGEKVEGLQAQALYPWRAKKDNHLNFNKNDVITVAEQQDMWWFGEVQGQKGWFPKSYVKLISG [L35A]	-0.612 ± 0.36
QGEKVEGLQAQALYPWRAKKDNHLNFNKNDVITVLEQQDMWWFGEVQPQKGWFPKSYVKLISG [G48P]	-0.604 ± 0.35
QGEKVEGLEAQALYPWRAKKDNHLNFNKNDVITVLEQQDMWWFGEVQGQKGWFPKSYVKLISG [Q9E]	0.008 ± 0.12
QGEKVEGLPAQALYPWRAKKDNHLNFNKNDVITVLEQQDMWWFGEVQGQKGWFPKSYVKLISG [Q9P]	-0.17 ± 0.2
QGEKVEGLQAQALYPWRAKKDNHLNFNQNDVITVLEQQDMWWFGEVQGQKGWFPKSYVKLISG [K28Q]	-0.197 ± 0.41
QGEKVEGLQAQALYPWRAKKDNHLNFNRNDVITVLEQQDMWWFGEVQGQKGWFPKSYVKLISG [K28R]	-0.232 ± 0.19
QGEKVEGLQAQALYPWRAKKDNHLNFNKNDVITVLEQQDMDWFGEVQGQKGWFPKSYVKLISG [W41D]	-0.245 ± 0.13
QGEKVEGLQAQALYPWRAKKDNHLNFNKNDVITVLEQQDMMWFGEVQGQKGWFPKSYVKLISG [W41M]	-0.071 ± 0.085
QGEKVYGLQAQALYPWRAKKDNHLNFNKNDVITVLEQQDMWWFGEVQGQKGWFPKSYVKLISG [E6Y]	-0.119 ± 0.24
QGEKVFGLQAQALYPWRAKKDNHLNFNKNDVITVLEQQDMWWFGEVQGQKGWFPKSYVKLISG [E6F]	-0.178 ± 0.24
QGEKVDGLQAQALYPWRAKKDNHLNFNKNDVITVLEQQDMWWFGEVQGQKGWFPKSYVKLISG [E6D]	-0.221 ± 0.26
QGEKVEGLQAQALYPWRAKKDNHLNFNKNDVITVLEQQDMWWFGEVQGQKGWFPKSDVKLISG [Y57D]	-0.399 ± 0.24
QGEKVEGLQAQALYPWRAKKDNHLNFNKNDVITVLEQQDMWWFGEVQGQKGWFPKSAVKLISG [Y57A]	0.12 ± 0.11

Variant	abundance fitness
QGEKVEGLQAQALYCWRAKKDNHLNFNKNDVITVLEQQDMWWFGEVQGQKGWFPKSYVKLISG [P15C]	-0.059 ± 0.18
QGEKVEGLQAQALYEWRAKKDNHLNFNKNDVITVLEQQDMWWFGEVQGQKGWFPKSYVKLISG [P15E]	0.054 ± 0.12
QGEKVEGLQAQALYPWRAKKDNHLNFNKNDVITVLEQQDMWWFGEVQGQKGWFPLSYVKLISG [K55L]	-0.24 ± 0.36
QGEKVEGLQAQALYPWRAKKDNHLNFNKNDVITVLEQQDMWWFGEVQGQKGWFWKSYVKLISG [P54W]	-0.437 ± 0.18
QGEKVEGLQAQALYPWRAKKDNHLNFNKNDVITVLEQQDMWWFGEVQGQKGWFPKSYWKLISG [V58W]	-0.87 ± 0.15
QGEVVEGLQAQALYPWRAKKDNHLNFNKNDVITVLEQQDMWWFGEVQGQKGWFPKSYVKLISG [K4V]	-0.168 ± 0.18
QGEYVEGLQAQALYPWRAKKDNHLNFNKNDVITVLEQQDMWWFGEVQGQKGWFPKSYVKLISG [K4Y]	-0.039 ± 0.23
QGEAVEGLQAQALYPWRAKKDNHLNFNKNDVITVLEQQDMWWFGEVQGQKGWFPKSYVKLISG [K4A]	-0.159 ± 0.12
QGEKVEGLQAQALYPWRAKKDNHLNFNKNDVITVLEQQAMWWFGEVQGQKGWFPKSYVKLISG [D39A]	-0.014 ± 0.093
QGEKVEGLQAQALYPWRQKKDNHLNFNKNDVITVLEQQDMWWFGEVQGQKGWFPKSYVKLISG [A18Q]	-0.494 ± 0.15
QGEKVEGLQAQALYPWRWKKDNHLNFNKNDVITVLEQQDMWWFGEVQGQKGWFPKSYVKLISG [A18W]	-0.362 ± 0.1
EGEKVEGLQAQALYPWRAKKDNHLNFNKNDVITVLEQQDMWWFGEVQGQKGWFPKSYVKLISG [Q1E]	-0.335 ± 0.31
QGEKVEGLQAQALYPWRAKKDNHLNFNKNDVITGLEQQDMWWFGEVQGQKGWFPKSYVKLISG [V34G]	-0.455 ± 0.087
QGEKVEGLQAQALYPWRAKKDNHLNFNKNDVITVLEQQDMWWFGEVQGQKMWFPKSYVKLISG [G51M]	-0.938 ± 0.45
QGEKVEGLQAQALYPWSAKKDNHLNFNKNDVITVLEQQDMWWFGEVQGQKGWFPKSYVKLISG [R17S]	-0.043 ± 0.11
QGEKVEGLQACALYPWRAKKDNHLNFNKNDVITVLEQQDMWWFGEVQGQKGWFPKSYVKLISG [Q11C]	-0.459 ± 0.21
QGEKVEGLQAQALYPWRAKKDNHLNFNKWDVITVLEQQDMWWFGEVQGQKGWFPKSYVKLISG [N29W]	-0.345 ± 0.1
QGEKVEGLQAQALYPWRAKKDNHLNFNKNDVIVVLEQQDMWWFGEVQGQKGWFPKSYVKLISG [T33V]	-0.113 ± 0.46
QGEKVEGLQAQALYPWRAKKDNHLNFNKNDVITVLEQQDMWWFGEVQGQKGWFPKSYVKLIEG [S62E]	-0.398 ± 0.38
QGEKVEGLQAQALYPYRAKKDNHLNFNKNDVITVLEQQDMWWFGEVQGQKGWFPKSYVKLISG [W16Y]	-0.32 ± 0.29
QGEKVEGLQAQALYPNRAKKDNHLNFNKNDVITVLEQQDMWWFGEVQGQKGWFPKSYVKLISG [W16N]	-0.199 ± 0.2
